Earlier results as cited in US7208138B2, “Contrast enhancement agent for magnetic resonance imaging” (Duke University, priority 2001, dated 2007).

Key:
[1] = fraction of the relaxivity of free gadolinium ion
[2] = time to clearance of one half from the bloodstream
fXIIIa = biological target: T1, fXIIIa (Homo sapiens, UniProt P00488)
T1 sequence (P00488 39-732 limits assumed): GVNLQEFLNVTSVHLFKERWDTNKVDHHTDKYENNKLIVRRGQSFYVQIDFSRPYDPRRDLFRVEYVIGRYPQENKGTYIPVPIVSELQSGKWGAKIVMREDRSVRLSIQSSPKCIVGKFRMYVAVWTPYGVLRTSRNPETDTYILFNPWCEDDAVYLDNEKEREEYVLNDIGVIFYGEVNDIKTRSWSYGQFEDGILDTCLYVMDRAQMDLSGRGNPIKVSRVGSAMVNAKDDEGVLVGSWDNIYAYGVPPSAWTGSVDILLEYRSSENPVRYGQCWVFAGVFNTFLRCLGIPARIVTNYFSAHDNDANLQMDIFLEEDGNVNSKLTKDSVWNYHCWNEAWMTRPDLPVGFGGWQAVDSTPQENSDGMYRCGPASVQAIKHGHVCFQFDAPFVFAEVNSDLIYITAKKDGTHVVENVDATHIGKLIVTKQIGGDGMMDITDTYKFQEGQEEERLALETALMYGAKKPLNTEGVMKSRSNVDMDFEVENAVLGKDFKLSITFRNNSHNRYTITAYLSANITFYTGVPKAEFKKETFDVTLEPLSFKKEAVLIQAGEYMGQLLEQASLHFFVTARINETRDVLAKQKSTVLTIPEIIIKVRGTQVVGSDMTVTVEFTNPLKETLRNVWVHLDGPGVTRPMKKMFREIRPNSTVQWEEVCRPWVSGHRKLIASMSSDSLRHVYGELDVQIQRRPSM

TG = biological target: T2, TG (Homo sapiens, UniProt P21980)
T2 sequence (P21980 1-687): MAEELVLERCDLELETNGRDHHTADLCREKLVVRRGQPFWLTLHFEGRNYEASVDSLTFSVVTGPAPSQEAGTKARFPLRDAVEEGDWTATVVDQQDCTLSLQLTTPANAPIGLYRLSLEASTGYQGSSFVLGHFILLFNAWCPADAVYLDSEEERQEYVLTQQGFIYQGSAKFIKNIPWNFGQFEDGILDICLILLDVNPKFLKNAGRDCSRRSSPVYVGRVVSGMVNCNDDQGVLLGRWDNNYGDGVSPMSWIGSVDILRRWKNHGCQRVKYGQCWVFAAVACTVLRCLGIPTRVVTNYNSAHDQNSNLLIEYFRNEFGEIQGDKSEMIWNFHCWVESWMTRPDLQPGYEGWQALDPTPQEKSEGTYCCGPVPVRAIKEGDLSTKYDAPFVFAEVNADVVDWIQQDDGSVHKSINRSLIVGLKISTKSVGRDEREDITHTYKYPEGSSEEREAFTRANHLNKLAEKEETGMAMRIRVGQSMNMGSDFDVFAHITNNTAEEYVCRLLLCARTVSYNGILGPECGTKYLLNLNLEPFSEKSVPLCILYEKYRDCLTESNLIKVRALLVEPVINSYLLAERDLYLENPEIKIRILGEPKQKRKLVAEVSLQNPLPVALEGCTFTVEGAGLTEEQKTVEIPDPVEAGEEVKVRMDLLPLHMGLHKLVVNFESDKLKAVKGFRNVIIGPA

| Molecule | relaxivity of the complex relative to free gadolinium ion [1] | cleared from the bloodstream (½) [2] [min] | fXIIIa crosslinking / recognition (fXIIIa) | TG crosslinking / recognition (TG) |
| --- | --- | --- | --- | --- |
| O=C([O-])CN(CCN(CC(=O)[O-])CC(=O)[O-])CCN(CC(=O)[O-])CC(=O)[O-].[Gd+3] [Gd-DTPA] | about one-half | 20 |  |  |
| SEQ ID NO: 3: peptide NGEQVSP, glycine at position 2; control peptide in crosslinking assays (listed as Homo sapiens) |  |  | inert | inert |
| SEQ ID NO: 2: peptide of amino acid sequence NQEQVSP, the TG and fXIIIa crosslinking motif (listed as Homo sapiens) |  |  | recognized | recognized |
